Laboratory results reported in doi:10.1101/169961.

Molecular target: Chicken skeletal muscle actin (chicken) (UniProt P68139)
Assay: TIRF microscopy

percent of Fim1 association with F-actin prevented by Cdc8 alone: 50%
Substance: tropomyosin AlaSer-Cdc8, labeled (natural protein)
